From the supplement of paper PMC5998384 come the findings set out here.

In data set [1] the test system is HeLa Kyoto. Nature of the data set: solubility in G1/S (NP-40 vs SDS abundance) (log2 ratio); higher = more soluble. The note with it: cell cycle stage: G1/S.
The test system of data set [2] is HeLa Kyoto. Nature of the data set: melting temperature (median over replicates), in situ; higher = more thermally stable. To be noted: cell cycle stage: mitosis.
The subject of data set [3] is HeLa Kyoto. In words: solubility change mitosis vs G1/S (difference of NP-40 vs SDS log2 ratios) (log2 ratio difference); higher = more soluble in mitosis.
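For melting temperature (median over replicates), in situ in this document: HeLa Kyoto cells synchronized by double thymidine or nocodazole block, proteins quantified by TMT10plex mass spectrometry, three independent biological replicates.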
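For solubility change mitosis vs G1/S (difference of NP-40 vs SDS log2 ratios) in this document: synchronized HeLa Kyoto cells (double thymidine block for G1/S, nocodazole release for mitosis), protein amounts in NP-40 versus SDS lysates quantified by mass spectrometry, three biological replicates.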
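For solubility in G1/S (NP-40 vs SDS abundance) in this document: HeLa Kyoto cells arrested at G1/S by double thymidine block, proteins quantified by TMT10plex mass spectrometry in mild NP-40 versus SDS extracts, three biological replicates.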

“MDVSGQETDWRSTAFRQKLVSQIEDAMRKAGVAHSKSSKDMESHVFLKAKTRDEYLSLVARLIIHFRDIHNKKSQASVSDPMNALQSLTGGPAAGAAGIGMPPRGPGQSLGGMGSLGAMGQPMSLSGQPPPGTSGMAPHSMAVVSTATPQTQLQLQQVALQQQQQQQQFQQQQQAALQQQQQQQQQQQFQAQQSAMQQQFQAVVQQQQQLQQQQQQQQHLIKLHHQNQQQIQQQQQQLQRIAQLQLQQQQQQQQQQQQQQQQALQAQPPIQQPPMQQPQPPPSQALPQQLQQMHHTQHHQPPPQPQQPPVAQNQPSQLPPQSQTQPLVSQAQALPGQMLYTQPPLKFVRAPMVVQQPPVQPQVQQQQTAVQTAQAAQMVAPGVQMITEALAQGGMHIRARFPPTTAVSAIPSSSIPLGRQPMAQVSQSSLPMLSSPSPGQQVQTPQSMPPPPQPSPQPGQPSSQPNSNVSSGPAPSPSSFLPSPSPQPSQSPVTARTPQNFSVPSPGPLNTPVNPSSVMSPAGSSQAEEQQYLDKLKQLSKYIEPLRRMINKIDKNEDRKKDLSKMKSLLDILTDPSKRCPLKTLQKCEIALEKLKNDMAVPTPPPPPVPPTKQQYLCQPLLDAVLANIRSPVFNHSLYRTFVPAMTAIHGPPITAPVVCTRKRRLEDDERQSIPSVLQGEVARLDPKFLVNLDPSHCSNNGTVHLICKLDDKDLPSVPPLELSVPADYPAQSPLWIDRQWQYDANPFLQSVHRCMTSRLLQLPDKHSVTALLNTWAQSVHQACLSAA [MED15]”: the “solubility in G1/S (log2)” value in the data set with HeLa Kyoto [1] came to 0.144. This sequence registered a melting temperature in the data set on HeLa Kyoto [2] of 51.3 °C. In the data set with HeLa Kyoto [3], the “solubility change mitosis (log2)” value worked out at 0.147.

Consider “MEAAVGVPDGGDQGGAGPREDATPMDAYLRKLGLYRKLVAKDGSCLFRAVAEQVLHSQSRHVEVRMACIHYLRENREKFEAFIEGSFEEYLKRLENPQEWVGQVEISALSLMYRKDFIIYREPNVSPSQVTENNFPEKVLLCFSNGNHYDIVYPIKYKESSAMCQSLLYELLYEKVFKTDVSKIVMELDTLEVADEDNSEISDSEDDSCKSKTAAAAADVNGFKPLSGNEQLKNNGNSTSLPLSRKVLKSLNPAVYRNVEYEIWLKSKQAQQKRDYSIAAGLQYEVGDKCQVRLDHNGKFLNADVQGIHSENGPVLVEELGKKHTSKNLKAPPPESWNTVSGKKMKKPSTSGQNFHSDVDYRGPKNPSKPIKAPSALPPRLQHPSGVRQHAFSSHSSGSQSQKFSSEHKNLSRTPSQIIRKPDRERVEDFDHTSRESNYFGLSPEERREKQAIEESRLLYEIQNRDEQAFPALSSSSVNQSASQSSNPCVQRKSSHVGDRKGSRRRMDTEERKDKDSIHGHSQLDKRPEPSTLENITDDKYATVSSPSKSKKLECPSPAEQKPAEHVSLSNPAPLLVSPEVHLTPAVPSLPATVPAWPSEPTTFGPTGVPAPIPVLSVTQTLTTGPDSAVSQAHLTPSPVPVSIQAVNQPLMPLPQTLSLYQDPLYPGFPCNEKGDRAIVPPYSLCQTGEDLPKDKNILRFFFNLGVKAYSCPMWAPHSYLYPLHQAYLAACRMYPKVPVPVYPHNPWFQEAPAAQNESDCTCTDAHFPMQTEASVNGQMPQPEIGPPTFSSPLVIPPSQVSESHGQLSYQADLESETPGQLLHADYEESLSGKNMFPQPSFGPNPFLGPVPIAPPFFPHVWYGYPFQGFIENPVMRQNIVLPSDEKGELDLSLENLDLSKDCGSVSTVDEFPEARGEHVHSLPEASVSSKPDEGRTEQSSQTRKADTALASIPPVAEGKAHPPTQILNRERETVPVELEPKRTIQSLKEKTEKVKDPKTAADVVSPGANSVDSRVQRPKEESSEDENEVSNILRSGRSKQFYNQTYGSRKYKSDWGYSGRGGYQHVRSEESWKGQPSRSRDEGYQYHRNVRGRPFRGDRRRSGMGDGHRGQHT [OTUD4]”, for which, in the data set with HeLa Kyoto [1], the “solubility in G1/S (log2)” value was -0.0234. The melting temperature in the data set on HeLa Kyoto [2] was 51.1 °C. Also, in the data set on HeLa Kyoto [3], the “solubility change mitosis (log2)” value was 0.0663.
